Measurements published in article PMC9697344.

Target: human epidermal growth factor receptor expressed on M3-EGFR cells (human) (UniProt P00533)

| Substance | average fluorescence of M3-EGFR cell nuclei (anti-His-Tag Alexa Fluor 647) after 2 h incubation with 300 nM MNT (Relative units (RU)) |
| --- | --- |
| DTox-HMP-NLS-EGF modular nanotransporter | 44.3 |
| EGF-DTox-HMP-NLS-[Nrf2-peptide] modular nanotransporter | 44.7 |
